Test results reported in the supplement of paper PMC10724198.
± gives the standard deviation of the averaged measurements.

Columns and labels:
[1] = test system: Saccharomyces cerevisiae; assay: protein stability index of tFT-peptide fusion (C-terminal peptide) (PSI (0-1 scale)); higher = more stable (slower turnover)
Protocol: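 MPS profiling in S. cerevisiae of the tFT-X12 degron library: putative degron peptides plus stable controls, 12 aa, fused to the C-terminus of a sfGFP-mCherry timer. Cells are FACS-sorted into 8 mCherry/sfGFP bins and deep-sequenced. PSI runs from 0 (unstable) to 1 (stable). Backgrounds are wild type, das1Δ and doa10Δ at 30 °C, and wild type, das1Δ, cdc34-1 and cdc53-1 at 37 °C; 2-3 technical replicates each.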

[2] = test system: Saccharomyces cerevisiae; assay: as above; conditions: genetic background: wild type; temperature: 30 C
[3] = genetic background: cdc34-1, temperature: 37 C
[4] = genetic background: cdc53-1, temperature: 37 C
[5] = genetic background: das1 deletion, temperature: 30 C
[6] = genetic background: das1 deletion, temperature: 37 C
[7] = genetic background: doa10 deletion, temperature: 30 C
[8] = genetic background: wild type, temperature: 30 C
[9] = genetic background: wild type, temperature: 37 C
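Further: PSI is a weighted mean of sequencing reads over stability bins, variants kept only with over 10 reads, mCherry proximal and sfGFP distal, peptide attached via GGGS linker.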

Row | Sequence | protein stability index [1, 3] | protein stability index [1, 4] | protein stability index [1, 5] | protein stability index [1, 6] | protein stability index [1, 7] | protein stability index [1, 8] | protein stability index [1, 9] | protein stability index [2]
1 | FMANRYICQKTL | 0.522 ± 0.074 | 0.731 ± 0.018 | 0.635 ± 0.026 | 0.727 ± 0.01 | 0.0893 ± 0.023 | 0.0967 ± 0.022 | 0.168 ± 0.017 | 0.185 ± 0.012
2 | PPPLPFPTPPPS | 0.689 ± 0.0093 | 0.764 ± 0.041 | 0.644 ± 0.044 | 0.702 ± 0.0074 | 0.634 ± 0.025 | 0.646 ± 0.032 | 0.6663 ± 0.0036 | 0.433 ± 0.038
3 | LLVRYYLFYVLV | 0.357 ± 0.018 | 0.442 ± 0.02 | 0.316 ± 0.048 | 0.477 ± 0.014 | 0.255 ± 0.0062 | 0.243 ± 0.024 | 0.391 ± 0.0082 | 0.351 ± 0.013
4 | GVLRMAPGRVMC | 0.599 ± 0.031 | 0.704 ± 0.0083 | 0.598 ± 0.024 | 0.702 ± 0.016 | 0.159 ± 0.02 | 0.175 ± 0.0027 | 0.345 ± 0.04 | 0.268 ± 0.032
5 | FALPPSLLLLSA | 0.544 ± 0.019 | 0.557 ± 0.013 | 0.442 ± 0.027 | 0.5917 ± 0.0017 | 0.418 ± 0.0085 | 0.449 ± 0.016 | 0.55962 ± 0.00044 | 0.501 ± 0.026
6 | LRFYLLTPPSPA | 0.59 ± 0.022 | 0.6288 ± 0.0054 | 0.481 ± 0.024 | 0.631 ± 0.0089 | 0.469 ± 0.017 | 0.494 ± 0.02 | 0.586 ± 0.029 | 0.54 ± 0.061
7 | RASLPSLFRSLL | 0.951 ± 0.014 | 0.913 ± 0.048 | 0.804 ± 0.047 | 0.879 ± 0.019 | 0.8152 ± 0.008 | 0.807 ± 0.022 | 0.897 ± 0.011 | 0.811 ± 0.073
8 | GFFLLSFLFFVR | 0.148 ± 0.0056 | 0.181 ± 0.037 | 0.212 ± 0.023 | 0.393 ± 0.034 | 0.234 ± 0.02 | 0.195 ± 0.021 | 0.311 ± 0.007 | 0.224 ± 0.032
9 | LSGVLFSLIRFY | 0.587 ± 0.06 | 0.636 ± 0.011 | 0.517 ± 0.03 | 0.696 ± 0.008 | 0.274 ± 0.015 | 0.287 ± 0.032 | 0.495 ± 0.015 | 0.383 ± 0.036
10 | ELNERRKRLVTN | 0.623 ± 0.052 | 0.737 ± 0.01 | 0.6615 ± 0.0035 | 0.718 ± 0.0088 | 0.13 ± 0.021 | 0.142 ± 0.012 | 0.268 ± 0.033 | 0.304 ± 0.011
11 | VRTFAVSCLCVC | 0.0897 ± 0.018 | 0.139 ± 0.034 | 0.19 ± 0.019 | 0.23 ± 0.0066 | 0.126 ± 0.0024 | 0.133 ± 0.013 | 0.128 ± 0.0014 | 0.301 ± 0.0037
12 | DLRGLGRFRISH | 0.6886 ± 0.0067 | 0.741 ± 0.021 | 0.64 ± 0.031 | 0.7181 ± 0.0055 | 0.486 ± 0.0072 | 0.503 ± 0.024 | 0.677 ± 0.017 | 0.572 ± 0.11
13 | CGQIAFLGIAVK | 0.479 ± 0.0077 | 0.504 ± 0.043 | 0.317 ± 0.042 | 0.551 ± 0.024 | 0.289 ± 0.015 | 0.323 ± 0.029 | 0.541 ± 0.0077 | 0.4722 ± 0.0006
14 | YRHYGVARKKLA | 0.592 ± 0.075 | 0.7016 ± 0.0023 | 0.634 ± 0.034 | 0.713 ± 0.028 | 0.081 ± 0.009 | 0.134 ± 0.01 | 0.127 ± 0.016 | 0.152 ± 0.0056
15 | EKTKTKRERKIN | 0.576 ± 0.0019 | 0.696 ± 0.008 | 0.626 ± 0.045 | 0.715 ± 0.036 | 0.165 ± 0.0048 | 0.191 ± 0.015 | 0.384 ± 0.0062 | 0.312 ± 0.028
16 | LCSCMWISAIAI | 0.5594 ± 0.0027 | 0.574 ± 0.006 | 0.435 ± 0.024 | 0.582 ± 0.014 | 0.41 ± 0.036 | 0.435 ± 0.027 | 0.533 ± 0.039 | 0.445 ± 0.0055
17 | WNIVKHREDMLS | 0.685 ± 0.013 | 0.768 ± 0.015 | 0.638 ± 0.021 | 0.7359 ± 0.0046 | 0.63 ± 0.033 | 0.621 ± 0.027 | 0.7213 ± 0.0053 | 0.524 ± 0.14
18 | RGFIFFALWSFC | 0.458 ± 0.0091 | 0.544 ± 0.021 | 0.375 ± 0.031 | 0.5317 ± 0.0053 | 0.334 ± 0.021 | 0.35 ± 0.016 | 0.498 ± 0.022 | 0.384 ± 0.08
19 | LKTKKKKTNTQK | 0.627 ± 0.0068 | 0.633 ± 0.057 | 0.717 ± 0.03 | 0.68 ± 0.038 | 0.67 ± 0.033 | 0.715 ± 0.056 | 0.683 ± 0.0086 | 0.495 ± 0.037
